Data as given in PMC6356446.

Target: c-Met (human (endogenous in HCC413)), P08581
Test: flow cytometry on cells; HCC413 cells treated with EGF-FITC or HGF-FITC alone or with unlabeled LZ-8 for 15 min; fixed; relative mean fluorescence intensity
Settings: remark: other sources report otherwise

c-Met (human (endogenous in HCC413)), P08581, sequence (P08581 25-1390): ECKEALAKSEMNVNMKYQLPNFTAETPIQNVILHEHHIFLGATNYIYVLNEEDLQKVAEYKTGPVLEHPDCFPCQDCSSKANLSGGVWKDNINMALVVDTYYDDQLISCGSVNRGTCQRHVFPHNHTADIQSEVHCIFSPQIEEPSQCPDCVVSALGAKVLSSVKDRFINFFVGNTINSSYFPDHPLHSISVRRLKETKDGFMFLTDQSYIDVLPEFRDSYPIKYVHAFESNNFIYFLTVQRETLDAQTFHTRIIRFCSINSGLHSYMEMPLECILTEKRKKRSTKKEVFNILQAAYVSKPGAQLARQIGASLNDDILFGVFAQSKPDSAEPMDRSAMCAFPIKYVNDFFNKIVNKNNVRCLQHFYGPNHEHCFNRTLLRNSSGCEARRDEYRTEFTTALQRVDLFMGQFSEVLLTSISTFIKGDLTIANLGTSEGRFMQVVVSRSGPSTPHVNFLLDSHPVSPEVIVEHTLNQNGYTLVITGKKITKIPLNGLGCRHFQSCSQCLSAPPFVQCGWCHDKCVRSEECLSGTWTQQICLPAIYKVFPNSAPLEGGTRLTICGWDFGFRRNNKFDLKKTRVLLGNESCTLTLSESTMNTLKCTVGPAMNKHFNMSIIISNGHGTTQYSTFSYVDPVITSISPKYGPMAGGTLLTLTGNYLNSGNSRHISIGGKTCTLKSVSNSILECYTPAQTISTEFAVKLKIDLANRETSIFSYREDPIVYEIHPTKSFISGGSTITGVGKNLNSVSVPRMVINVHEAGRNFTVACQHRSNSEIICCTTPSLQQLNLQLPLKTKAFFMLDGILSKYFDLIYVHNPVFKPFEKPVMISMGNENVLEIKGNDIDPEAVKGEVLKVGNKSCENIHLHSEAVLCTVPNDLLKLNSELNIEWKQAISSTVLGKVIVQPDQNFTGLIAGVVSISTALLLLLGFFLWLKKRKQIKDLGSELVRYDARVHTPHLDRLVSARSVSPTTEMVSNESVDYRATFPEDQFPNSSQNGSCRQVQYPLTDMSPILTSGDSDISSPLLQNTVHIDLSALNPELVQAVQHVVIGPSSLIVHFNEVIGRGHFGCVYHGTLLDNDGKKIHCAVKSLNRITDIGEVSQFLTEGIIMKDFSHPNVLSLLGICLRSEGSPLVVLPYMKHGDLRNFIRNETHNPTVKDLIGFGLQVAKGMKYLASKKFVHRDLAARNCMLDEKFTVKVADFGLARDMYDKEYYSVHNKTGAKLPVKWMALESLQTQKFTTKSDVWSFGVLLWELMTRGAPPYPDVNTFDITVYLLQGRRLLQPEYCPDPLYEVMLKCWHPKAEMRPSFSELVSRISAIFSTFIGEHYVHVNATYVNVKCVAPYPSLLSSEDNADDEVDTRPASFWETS

- percent suppression of HGF-FITC binding on the cell surface: 30%
B1: Ling-Zhi-8, P14945 1-111 (natural protein)
chain: MSDTALIFRLAWDVKKLSFDYTPNWGRGNPNNFIDTVTFPKVLTDKAYTYRVAVSGRNLGVKPSYAVESDGSQKVNFLEYNSGYGIADTNTIQVFVVDPDTNNDFIIAQWN
modifications: here or on the partner: N-glycans (sites not given)
